For one molecule, Kd results are on record in patent US20230365674 (published 2023).

Read-outs that look alike come from different tables or passages of the source.

Assay in all cases: SPR
Assay [1] concerns the target T1, human NPR1-ANP complex (human).
T1 chain 1: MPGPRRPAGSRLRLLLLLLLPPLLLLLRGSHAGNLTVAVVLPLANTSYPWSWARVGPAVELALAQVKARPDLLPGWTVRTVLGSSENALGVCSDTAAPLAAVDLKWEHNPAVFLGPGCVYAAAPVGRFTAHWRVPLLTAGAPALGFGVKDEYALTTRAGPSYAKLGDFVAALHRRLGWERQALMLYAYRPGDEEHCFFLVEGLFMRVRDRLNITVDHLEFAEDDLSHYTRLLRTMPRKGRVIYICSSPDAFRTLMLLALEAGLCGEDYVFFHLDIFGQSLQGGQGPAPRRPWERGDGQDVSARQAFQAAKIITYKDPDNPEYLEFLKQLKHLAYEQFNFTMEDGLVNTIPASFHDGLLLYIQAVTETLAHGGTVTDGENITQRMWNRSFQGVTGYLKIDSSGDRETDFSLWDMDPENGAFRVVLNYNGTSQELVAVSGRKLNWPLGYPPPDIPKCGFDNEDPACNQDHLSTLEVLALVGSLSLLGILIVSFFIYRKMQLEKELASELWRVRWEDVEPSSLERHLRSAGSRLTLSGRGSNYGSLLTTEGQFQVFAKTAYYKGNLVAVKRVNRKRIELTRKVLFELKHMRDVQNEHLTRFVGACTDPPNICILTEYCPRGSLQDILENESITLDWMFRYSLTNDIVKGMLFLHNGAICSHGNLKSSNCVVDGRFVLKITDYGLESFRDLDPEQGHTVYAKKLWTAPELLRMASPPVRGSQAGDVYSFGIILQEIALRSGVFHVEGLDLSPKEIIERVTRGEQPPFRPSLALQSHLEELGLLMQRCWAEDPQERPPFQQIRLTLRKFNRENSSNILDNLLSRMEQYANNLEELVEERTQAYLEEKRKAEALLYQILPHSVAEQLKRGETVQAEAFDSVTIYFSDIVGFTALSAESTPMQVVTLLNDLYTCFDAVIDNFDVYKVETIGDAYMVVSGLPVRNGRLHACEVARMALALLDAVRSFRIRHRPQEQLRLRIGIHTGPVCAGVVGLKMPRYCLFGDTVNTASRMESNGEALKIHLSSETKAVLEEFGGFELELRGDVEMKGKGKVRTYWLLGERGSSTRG
T1 chain 2: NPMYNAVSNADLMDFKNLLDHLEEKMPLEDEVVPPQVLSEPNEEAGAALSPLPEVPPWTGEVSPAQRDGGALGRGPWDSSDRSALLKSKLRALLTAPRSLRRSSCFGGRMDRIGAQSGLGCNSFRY

For assay [2], the target named is T2, human NPR1 (human).
T2 chain: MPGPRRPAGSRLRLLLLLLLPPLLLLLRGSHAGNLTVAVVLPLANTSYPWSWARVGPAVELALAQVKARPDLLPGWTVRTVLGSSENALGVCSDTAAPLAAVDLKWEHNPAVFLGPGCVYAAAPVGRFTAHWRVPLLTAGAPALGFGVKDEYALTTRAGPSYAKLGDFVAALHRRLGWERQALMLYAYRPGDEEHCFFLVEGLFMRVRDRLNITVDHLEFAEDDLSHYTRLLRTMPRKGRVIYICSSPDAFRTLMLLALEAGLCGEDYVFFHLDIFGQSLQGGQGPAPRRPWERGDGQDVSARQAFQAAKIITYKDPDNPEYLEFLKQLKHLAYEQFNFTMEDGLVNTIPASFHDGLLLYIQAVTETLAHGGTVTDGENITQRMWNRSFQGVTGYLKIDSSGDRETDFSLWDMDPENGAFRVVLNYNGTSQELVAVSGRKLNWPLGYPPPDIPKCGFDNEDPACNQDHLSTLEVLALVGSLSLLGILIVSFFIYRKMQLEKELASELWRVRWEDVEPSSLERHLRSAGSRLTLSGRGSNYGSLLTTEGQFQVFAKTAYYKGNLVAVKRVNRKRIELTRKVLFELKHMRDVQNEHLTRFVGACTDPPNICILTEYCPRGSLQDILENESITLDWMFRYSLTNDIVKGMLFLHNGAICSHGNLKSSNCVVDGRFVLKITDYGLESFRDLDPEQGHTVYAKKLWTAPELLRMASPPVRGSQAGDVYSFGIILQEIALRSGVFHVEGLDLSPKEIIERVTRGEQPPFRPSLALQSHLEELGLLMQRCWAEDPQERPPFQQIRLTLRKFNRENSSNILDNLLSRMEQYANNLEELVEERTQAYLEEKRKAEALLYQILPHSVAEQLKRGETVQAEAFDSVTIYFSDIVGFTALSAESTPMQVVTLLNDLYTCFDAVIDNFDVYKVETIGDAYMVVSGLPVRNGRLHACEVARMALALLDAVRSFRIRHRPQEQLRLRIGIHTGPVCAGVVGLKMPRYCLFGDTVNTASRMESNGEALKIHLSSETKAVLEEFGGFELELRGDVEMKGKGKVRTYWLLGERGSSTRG

Assay [3] deals with T1, human NPR1-ANP complex.
The target of assay [4] is T2, human NPR1.

B1: WW06 FabCys (antibody, V domains shown)
VH: QVQLVQSGAEVKKPGESLKISCKGSGYSFTSYWIAWVRQMPGKGLEWMGRIDPDNSYTRYSPSFQGQVTISADKSISTAYLQWSSLKASDTAMYYCARWLSPGYALGEQPAGMDHWGQGTLVTVSS
VL: DIVLTQPPSVSGAPGQRVTISCTGSSSNIGAGYAVHWYQQLPGTAPKLLIYSNNKRPSGVPDRFSGSKSGTSASLAITGLQAEDEADYYCQSYDLQKSSRVFGGGTKLTVL
With B1, the Kd came to 12 nM with human NPR1-ANP complex [1], 5.3 nM in the assay with human NPR1 [2], 12 nM with human NPR1-ANP complex [3] and 5.3 nM with human NPR1 [4].
